Reference: patent publication US20080138349A1 (MacroGenics, published 2008)
Where a chain is given by its changes, count along the chain named. Names and notes keep the numbering of the source.

T1: FcγRIIB-Fc fusion protein, soluble dimeric: extracellular domain of FcγRIIB fused to the hinge-CH2-CH3 domain … (human, UniProt P31994 43-217, limits assumed)
T1 construct: extracellular domain; also called FcRIIB-Fc; FcR2B; not shown: human IgG2 hinge-CH2-CH3
T1 sequence (looked up): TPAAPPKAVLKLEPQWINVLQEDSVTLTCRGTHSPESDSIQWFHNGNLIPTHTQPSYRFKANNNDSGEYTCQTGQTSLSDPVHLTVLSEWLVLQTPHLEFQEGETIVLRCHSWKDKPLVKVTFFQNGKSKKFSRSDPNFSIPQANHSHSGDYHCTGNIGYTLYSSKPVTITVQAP

T2: FcγRIIB (UniProt P31994 43-217, limits assumed)
T2 construct: also called CD32B
T2 sequence (looked up): T1 sequence (looked up)

B1: ch4-4-20 K288N, A330S, P396L (antibody)
chain: EPKSCDKTHTCPPCPAPELLGGPSVFLFPPKPKDTLMISRTPEVTCVVVDVSHEDPEVKFNWYVDGVEVHNANTKPREEQYNSTYRVVSVLTVLHQDWLNGKEYKCKVSNKALPSPIEKTISKAKGQPREPQVYTLPPSREEMTKNQVSLTCLVKGFYPSDIAVEWESNGQPENNYKTTPLVLDSDGSFFLYSKLTVDKSRWQQGNVFSCSVMHEALHNHYTQKSLSLSPGK
B2: ch4-4-20 Y319F, P352L, P396L (antibody)
chain: B1 chain with N73K, Y104F, S115A, P137L
B3: ch4-4-20 E293V, Q295E, A327T (antibody)
chain: B1 chain with N73K, E78V, Q80E, A112T, S115A, L181P
B4: ch4-4-20 V379M (antibody)
chain 1: not shown
chain 2: DVVMTQTPLSLPVSLGDQASISCRSSQSLVHSNGNTYLRWYLQKPGQSPKVLIYKVSNRFSGVPDRFSGSGSGTDFTLKISRVEAEDLGVYFCSQSTHVPWTFGGGTKLEIKRTVAAPSVFIFPPSDEQLKSGTASVVCLLNNFYPREAKVQWKVDNALQSGNSQESVTEQDSKDSTYSLSSTLTLSKADYEKHKVYACEVTHQGLSSPVTKSFNRGEC
B5: ch4-4-20 G316D, A378V, D399E (antibody)
chain 1: EVKLDETGGGLVQPGRPMKLSCVASGFTFSDYWMNWVRQSPEKGLEWVAQIRNKPYNYETYYSDSVKGRFTISRDDSKSSVYLQMNNLRVEDMGIYYCTGSYYGMDYWGQGTSVTVSSASTKGPSVFPLAPSSKSTSGGTAALGCLVKDYFPEPVTVSWNSGALTSGVHTFPAVLQSSGLYSLSSVVTVPSSSLGTQTYICNVNHKPSNTKVDKKVEPKSCDKTHTCPPCPAPELLGGPSVFLFPPKPKDTLMISRTPEVTCVVVDVSHEDPEVKFNWYVDGVEVHNAKTKPREEQYNSTYRVVSVLTVLHQDWLNDKEYKCKVSNKALPAPIEKTISKAKGQPREPQVYTLPPSRDELTKNQVSLTCLVKGFYPSDIVVEWESNGQPENNYKTTPPVLESDGSFFLYSKLTVDKSRWQQGNVFSCSVMHEALHNHYTQKSLSLSPGK
chain 2: B4 chain 2
B6: ch4-4-20 K334E, T359N, T366S (antibody)
chain 1: B5 chain 1 with D317G, K335E, T360N, T367S, V379A, E400D
chain 2: B4 chain 2
B7: ch4-4-20 P247L, N421K (antibody)
chain 1: not shown
chain 2: B4 chain 2
B8: ch4-4-20 F243I, V379L, G420V (antibody)
chain 1: B5 chain 1 with F244I, D317G, V379A, V380L, E400D, G421V
chain 2: B4 chain 2
B9: ch4-4-20 F243I, V379L (antibody)
chain 1: not shown
chain 2: B4 chain 2
B10: ch4-4-20 D221E, D270E, V308A, Q311H, P396L, G402D (antibody)
chain: B1 chain with D6E, D55E, N73K, V93A, Q96H, S115A, G187D
B11: ch4-4-20 V348M, K334N, F275I, Y202M, K147T (antibody)
chain: ASTKGPSVFPLAPSSKSTSGGTAALGCLVTDYFPEPVTVSWNSGALTSGVHTFPAVLQSSGLYSLSSVVTVPSSSLGTQTYICNMNHKPSNTKVDKKVEPKSCDKTHTCPPCPAPELLGGPSVFLFPPKPKDTLMISRTPEVTCVVVDVSHEDPEVKINWYVDGVEVHNAKTKPREEQYNSTYRVVSVLTVLHQDWLNGKEYKCKVSNKALPAPIENTISKAKGQPREPQMYTLPPSRDELTKNQVSLTCLVKGFYPSDIAVEWESNGQPENNYKTTPPVLDSDGSFFLYSKLTVDKSRWQQGNVFSCSVMHEALHNHYTQKSLSLSPGK
B12: ch4-4-20 T215P, K274N, A287G, K334N, L365V, P396L (antibody)
chain: PEPKSCDKTHTCPPCPAPELLGGPSVFLFPPKPKDTLMISRTPEVTCVVVDVSHEDPEVNFNWYVDGVEVHNGKTKPREEQYNSTYRVVSVLTVLHQDWLNGKEYKCKVSNKALPAPIENTISKAKGQPREPQVYTLPPSRDELTKNQVSVTCLVKGFYPSDIAVEWESNGQPENNYKTTPLVLDSDGSFFLYSKLTVDKSRWQQGNVFSCSVMHEALHNHYTQKSLSLSPGK
B13: ch4-4-20 K317N, F423-deleted (antibody)
chain: EPKSCDKTHTCPPCPAPELLGGPSVFLFPPKPKDTLMISRTPEVTCVVVDVSHEDPEVKFNWYVDGVEVHNAKTKPREEQYNSTYRVVSVLTVLHQDWLNGNEYKCKVSNKALPAPIEKTISKAKGQPREPQVYTLPPSREEMTKNQVSLTCLVKGFYPSDIAVEWESNGQPENNYKTTPPVLDSDGSFFLYSKLTVDKSRWQQGNVSCSVMHEALHNHYTQKSLSLSPGK

Biological target: T3, FcγRIIIA (UniProt P08637 17-208, limits assumed)
T3 construct: also called CD16A
T3 sequence (P08637 17-208 limits assumed): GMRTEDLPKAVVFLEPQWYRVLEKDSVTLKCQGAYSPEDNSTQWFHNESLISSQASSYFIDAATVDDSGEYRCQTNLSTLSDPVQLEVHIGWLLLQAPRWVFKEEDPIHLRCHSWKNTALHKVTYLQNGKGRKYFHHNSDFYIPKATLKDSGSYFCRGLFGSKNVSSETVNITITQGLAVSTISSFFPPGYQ
Experiment: ELISA

ELISA, OD [OD]	Binder
1	B1

Biological target: T3, FcγRIIIA
Experiment: ELISA
Remark: another data set of the same source

ELISA IIIA binding vs wt [X]	Binder
5	B1
3.5	B2
1.4	B3
2	B4
1.5	B5
1.5	B6
3	B7

Biological target: T1, FcγRIIB-Fc fusion protein, soluble …
Experiment: BIAcore

Kd [nM]	koff [s⁻¹]	Binder
86	–	B3
70	0.1	B4
93.4	0.101	B8
120	0.113	B9
46	0.06	B5
72	0.11	B6
66	0.065	B7

Biological target: T4, soluble monomeric FcγRIIIA, the extracellular region of FcγRIIIA joined to the linker-AVITAG sequence (UniProt P08637 17-208, limits assumed)
T4 construct: extracellular domain; also called FcRIIIA; FcR3A
T4 sequence (P08637 17-208 limits assumed): as above
Experiment: BIAcore

Kd [nM]	koff [s⁻¹]	Binder
125	–	B2
160	0.167	B4
99.7	0.105	B9
72	0.117	B5
55.2	0.128	B6
62	0.108	B7

Biological target: T3, FcγRIIIA
Experiment: ELISA
Remark: another data set of the same source

ELISA binding increase vs wt [x]	Binder
0.4	B3
3.6	B10
0.5	B11
2	B4
1.5	B5
1.5	B6
3	B7

Biological target: T2, FcγRIIB
Experiment: ELISA

ELISA binding increase vs wt [x]	Binder
4	B12
0.1	B10
7	B13
0.75	B11
3.5	B8
14	B5
